{"source": "paper PMC10983743", "binders": {"B1": {"name": "C-type lectin-like receptor 2 (CLEC-2) on platelets of WT C57BL/6J mice (receptor)", "chain": "MQDEDGYITLNIKPRKQALSSAEPASSWWRVMALVLLISSMGLVVGLVALGIMSVTQQKYLLAEKENLSATLQQLAKKFCQELIRQSEIKTKSTFEHKCSPCATKWRYHGDSCYGFFRRNLTWEESKQYCTEQNATLVKTASQSTLDYIAERITSVRWIGLSRQNSKKDWMWEDSSVLRKNGINLSGNTEENMNCAYLHNGKIHPASCKERHYLICERNAGMTRVDQLL"}}, "target": "T1, Podoplanin (PDPN) on PDPN+ B16-F0 murine melanoma cells (mouse (endogenous in B16-F0)) (UniProt Q62011)", "T1 sequence": "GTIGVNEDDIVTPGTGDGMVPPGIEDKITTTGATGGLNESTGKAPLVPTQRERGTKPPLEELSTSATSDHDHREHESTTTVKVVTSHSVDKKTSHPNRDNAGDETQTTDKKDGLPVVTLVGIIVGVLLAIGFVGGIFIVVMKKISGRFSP"}
{"binder": "B1", "values": [{"measurement": "percent of tumour cells associated with platelets, counted under a fluorescence microscope (WT platelets mixed with PDPN+ B16-F0 cells, 1:200 tumour cells:platelets, 20 min at 37 °C)", "result": 65, "unit": "%"}]}
